Data as given in the supplement of paper PMC10724198.
± gives the standard deviation of the averaged measurements.

Each sequence was assayed on Saccharomyces cerevisiae (assay: protein stability index of tFT-peptide fusion (C-terminal peptide) (PSI (0-1 scale)); higher = more stable (slower turnover)). Conditions: genetic background: wild type; temperature: 30 C.
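Further: PSI is a weighted mean of sequencing reads over stability bins, variants kept only with over 10 reads, mCherry proximal and sfGFP distal, peptide attached via GGGS linker.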

Sequence	protein stability index
LRFLLLRFILRS	0.472 ± 0.048
LRGCGSGAGWFL	0.667 ± 0.028
LRGILGTLINGV	0.609 ± 0.097
LRGLRALRGDLT	0.654 ± 0.05
LRGVAIAARYPR	0.766 ± 0.02
LRIQKIVSGALM	0.707 ± 0.01
LRLLCVSGSSVR	0.638 ± 0.065
LRLSCGDRFRVG	0.557 ± 0.019
LRLTTNTGCTIS	0.611 ± 0.023
LRPKESQEYIHR	0.652 ± 0.079
LRPLQPCGLIQC	0.52 ± 0.022
LRQKKIELPIEP	0.687 ± 0.02
LRRPAFCAFTST	0.715 ± 0.024
LRRSPPNPLLKA	0.634 ± 0.021
LRRSRGTVWRWY	0.5535 ± 0.0032
LRSIAVLPPSPF	0.695 ± 0.039
LRSPPSLLPLSL	0.7056 ± 0.0033
LRSQDFKGHLRT	0.6606 ± 0.0029
LRSRTPPSPHFP	0.626 ± 0.0069
LRTLVARWIVGQ	0.515 ± 0.021
LRVFKVCSGISG	0.642 ± 0.045
LRVGMSSASVFQ	0.733 ± 0.03
LRVNGIVTVSGF	0.749 ± 0.13

Sequence	protein stability index
LSAVHYNRAVFA	0.5141 ± 0.0049
LSAVRFGRVWGG	0.6959 ± 0.0043
LSCWLGCVALGW	0.718 ± 0.13
LSEVFLSMNVVL	0.676 ± 0.06
LSFLYCSDNKVA	0.6562 ± 0.006
LSGLQGPGVSCC	0.642 ± 0.021
LSHLILPPSSPS	0.677 ± 0.013
LSIFFCRCFSSF	0.59 ± 0.021
LSIGGDLLFLRE	0.716 ± 0.067
LSKASNTLVDSD	0.755 ± 0.058
LSLFMAAREVFP	0.664 ± 0.018
LSLGSSATLTFQ	0.698 ± 0.03
LSLLPPLCFPSH	0.8215 ± 0.0043
LSLTCLSSPPPA	0.654 ± 0.034
LSLVDFSTLWFF	0.611 ± 0.08
LSPAAPTHAYAA	0.72 ± 0.1
LSPALSFVLTIW	0.497 ± 0.011
LSPFGTLLNAPP	0.782 ± 0.075
LSPGQVLPWGVL	0.643 ± 0.069
LSPLPPPAGHLP	0.646 ± 0.096
LSPPPLSPPSHP	0.723 ± 0.0092
LSQFQEPPFYLF	0.708 ± 0.044
LSQISTQRPNQV	0.694 ± 0.06

Sequence	protein stability index
LSRHSRSILPSL	0.726 ± 0.056
LSRSTSYILIII	0.515 ± 0.039
LSRWGKTKGKKW	0.62 ± 0.014
LSSARPLAGVHT	0.675 ± 0.03
LSSCPPPALRLP	0.715 ± 0.013
LSSGSCLESPFT	0.732 ± 0.08
LSSLYSSLTFFL	0.651 ± 0.014
LSSNSTTSATYR	0.722 ± 0.016
LSSSVIFALPLP	0.767 ± 0.034
LSSTGFDLWSLL	0.769 ± 0.067
LSTAWFYFSLLF	0.635 ± 0.072
LTCRGESYAGLI	0.651 ± 0.014
LTFWLGSLGLWG	0.72 ± 0.019
LTHLPSLCVRRI	0.647 ± 0.06
LTHTVLVGSALN	0.647 ± 0.024
LTIEFSARLGNA	0.663 ± 0.03
LTLPLFPPPCSV	0.648 ± 0.018
LTPEPPRPPTPY	0.699 ± 0.033
LTPSVRDKRPPI	0.759 ± 0.055
LTPTLLTNPQAD	0.678 ± 0.022
LTRFQPTPCLPP	0.691 ± 0.0074
LTVVGGVVGKVG	0.689 ± 0.037
LVAAEARIGFAV	0.7 ± 0.012

Sequence	protein stability index
LVCLLFTNKVMH	0.599 ± 0.011
LVEARQGAFLVV	0.692 ± 0.029
LVEEGKKLTSKF	0.711 ± 0.078
LVGALISHSILR	0.629 ± 0.019
LVGRVGAVAGPA	0.691 ± 0.028
LVHGWERPSRVR	0.661 ± 0.021
LVIGTTLSSLML	0.742 ± 0.066
LVLDVLDLRRHC	0.649 ± 0.012
LVLLDQISVPLI	0.6474 ± 0.00096
LVLLFGIGTTHW	0.65 ± 0.049
LVLRLLRGFLPK	0.681 ± 0.014
LVNVIPSHERAT	0.656 ± 0.037
LVPSPLIFPSLG	0.783 ± 0.012
LVRCPLGVPGAS	0.7085 ± 0.0065
LVSGFRYPFSCL	0.611 ± 0.037
LVSLVGVGWGCG	0.729 ± 0.023
LVVGNQFIRRSD	0.685 ± 0.023
LVVPNFPLSFSV	0.732 ± 0.055
LVVSLGLFLLRH	0.549 ± 0.045
LVWFQYFRLWGG	0.61 ± 0.029
LWENVVLVEGGK	0.704 ± 0.069
LWGEGAGPEDVG	0.674 ± 0.011
LWGGAGAGYWVG	0.727 ± 0.033

Sequence	protein stability index
LWGVGWPLLGGL	0.691 ± 0.04
LWISDSGSLYFS	0.739 ± 0.018
LWKLLNTVKNAA	0.62 ± 0.01
LWLDKSREGSLG	0.701 ± 0.021
LWLSAPDRREPF	0.684 ± 0.041
LWRRPASSLLPI	0.701 ± 0.018
LWSDPGQILVEL	0.717 ± 0.015
LYPGYIVVANYK	0.661 ± 0.032
LYPNPPLLPCSP	0.612 ± 0.046
LYQEPLRNACFC	0.683 ± 0.1
LYRRGTYFEGLI	0.704 ± 0.012
LYSGLASEIWYT	0.737 ± 0.045
LYSPSLRPPLLL	0.855 ± 0.18
LYSRSSRLFRPL	0.804 ± 0.042
LYSTATLSLCSR	0.707 ± 0.12
LYTNLIGFNSWI	0.713 ± 0.037
LYVTYVPYTYAT	0.665 ± 0.012
MALAVRVVGCGA	0.594 ± 0.014
MDKIKKNYSQIG	0.693 ± 0.036
MEAAGVGRVVWR	0.632 ± 0.056
MEGNQTSVRGRT	0.677 ± 0.083
MESGKILGCCGI	0.684 ± 0.012
MGGDATSLKRLV	0.703 ± 0.0091

Sequence	protein stability index
MGGRDNLVQKEW	0.804 ± 0.091
MGYNSRHLDISM	0.677 ± 0.018
MIKAPGHKGTIN	0.684 ± 0.02
MITRPASKYLVK	0.6221 ± 0.0052
MIVSILRSRSFS	0.557 ± 0.0066
MKNKSTEKNRKF	0.72815 ± 0.00016
MKPPRGRIVITG	0.626 ± 0.02
MLGRLLDRCYDY	0.678 ± 0.029
MLHLNPVLHISG	0.653 ± 0.041
MLLLWRVPQCGE	0.638 ± 0.055
MLMFSASAVWGG	0.556 ± 0.048
MLPPRRAPFPPP	0.735 ± 0.018
MLYENNTAPLFI	0.635 ± 0.045
MPCPFSSASRAI	0.668 ± 0.036
MPENGSTKSWWK	0.696 ± 0.082
MPGSLPVSRVLL	0.74 ± 0.087
MQLWECKQSLCD	0.696 ± 0.017
MQQWSTKSPGVI	0.651 ± 0.027
MREAQAFRCLYG	0.636 ± 0.0019
MSFFPCVFSGFG	0.738 ± 0.033
MSGRGPYPYSPL	0.7465 ± 0.0034
MSKTIEREGNMI	0.735 ± 0.034
MSPSVFLPPLPL	0.662 ± 0.09

Sequence	protein stability index
MSRRSVFGAVFW	0.663 ± 0.039
MSSTLCMLPFSV	0.771 ± 0.012
MTKNKFLTGSRL	0.845 ± 0.22
MTYSVWENVLTW	0.733 ± 0.032
MVDGFLRFDTKM	0.704 ± 0.13
MVELWQPASVFS	0.663 ± 0.033
MVGASFAILGFI	0.699 ± 0.014
MWAEWLCHGDRN	0.742 ± 0.068
NAKGRKQTGKRK	0.695 ± 0.035
NAYRYFLNKQNR	0.697 ± 0.012
NCFIPPARVFPS	0.686 ± 0.028
NCFVTILLGMWK	0.513 ± 0.022
NCKLAVSPRPLR	0.692 ± 0.051
NELSPSQDLPSS	0.671 ± 0.095
NERTETVHQGTP	0.691 ± 0.045
NFCSSGLPLLII	0.648 ± 0.022
NFLPSAARTRTP	0.6758 ± 0.0023
NFPVLLSISALL	0.548 ± 0.072
NGGERQDGGKHR	0.648 ± 0.034
NGKGARSGETRT	0.647 ± 0.057
NGTGGVEGPQTL	0.659 ± 0.025
NHTLPGTRSSVW	0.684 ± 0.09
